Laboratory results taken from PMC10397247.
Read-outs that look alike come from different tables or passages of the source. Blank lines part the entries; values can stand above or below the binder they belong to.

What was measured:
Test in all cases: two-hybrid library CCmax;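 also: natural log of median RNA to DNA barcode read ratio; higher means stronger binding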
4H3921-AA = target: T1, 4H3921-AA; conditions: mean of both orientations
T1 chain: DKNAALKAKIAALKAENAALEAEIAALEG

Core_NIIN-es_KEKK = target: T2, Core_NIIN-es_KEKK
T2 chain: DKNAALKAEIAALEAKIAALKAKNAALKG

4H2575-AA = target: T3, 4H2575-AA
T3 chain: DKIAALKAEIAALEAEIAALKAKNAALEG

4H1867-AA = target: T4, 4H1867-AA; conditions: mean of both orientations
T4 chain: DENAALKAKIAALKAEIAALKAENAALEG

4H481-AA = target: T5, 4H481-AA; conditions: mean of both orientations
T5 chain: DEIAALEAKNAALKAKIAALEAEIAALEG

4H2873-AA = target: T6, 4H2873-AA; conditions: mean of both orientations
T6 chain: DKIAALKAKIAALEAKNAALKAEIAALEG

4H233-AA = target: T7, 4H233-AA; conditions: mean of both orientations
T7 chain: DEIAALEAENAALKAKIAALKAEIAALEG

4H2985-AA = target: T8, 4H2985-AA; conditions: mean of both orientations
T8 chain: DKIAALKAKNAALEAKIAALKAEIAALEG

4H3605-AA = target: T9, 4H3605-AA; conditions: mean of both orientations
T9 chain: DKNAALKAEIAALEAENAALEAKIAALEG

4H327-AA = target: T10, 4H327-AA; conditions: mean of both orientations
T10 chain: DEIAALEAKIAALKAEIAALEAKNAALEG

4H2935-AA = target: T11, 4H2935-AA; conditions: mean of both orientations
T11 chain: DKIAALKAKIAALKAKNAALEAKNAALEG

4H451-AA = target: T12, 4H451-AA
T12 chain: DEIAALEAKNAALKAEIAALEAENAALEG

4H1913-AA = target: T13, 4H1913-AA; conditions: mean of both orientations
T13 chain: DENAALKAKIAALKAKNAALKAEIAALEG

4H2283-AA = target: T14, 4H2283-AA; conditions: mean of both orientations
T14 chain: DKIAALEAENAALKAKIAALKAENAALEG

4H3121-AA = target: T15, 4H3121-AA; conditions: mean of both orientations
T15 chain: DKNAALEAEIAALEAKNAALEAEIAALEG

4H3102-AA = target: T16, 4H3102-AA; conditions: mean of both orientations
T16 chain: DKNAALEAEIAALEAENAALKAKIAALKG

4H497-AA = target: T17, 4H497-AA; conditions: mean of both orientations
T17 chain: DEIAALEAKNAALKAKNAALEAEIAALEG

4H3666-AA = target: T18, 4H3666-AA; conditions: mean of both orientations
T18 chain: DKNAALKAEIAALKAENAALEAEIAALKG

P6-AA-12HAA-T = target: T19, P6-AA-12HAA-T
T19 chain: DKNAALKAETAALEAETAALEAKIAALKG

4H2504-AA = target: T20, 4H2504-AA; conditions: mean of both orientations
T20 chain: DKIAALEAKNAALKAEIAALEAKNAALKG

4H3340-AA = target: T21, 4H3340-AA; conditions: mean of both orientations
T21 chain: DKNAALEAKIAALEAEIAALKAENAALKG

APC5383-AA = target: T22, APC5383-AA; conditions: mean of both orientations
T22 chain: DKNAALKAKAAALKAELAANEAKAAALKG

APC8910-AA = target: T23, APC8910-AA; conditions: mean of both orientations
T23 chain: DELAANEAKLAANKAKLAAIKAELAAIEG

4H2148-AA = target: T24, 4H2148-AA; conditions: mean of both orientations
T24 chain: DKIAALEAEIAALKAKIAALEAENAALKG

4H568-AA = target: T25, 4H568-AA; conditions: mean of both orientations
T25 chain: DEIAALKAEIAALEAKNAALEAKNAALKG

4H967-AA = target: T26, 4H967-AA; conditions: mean of both orientations
T26 chain: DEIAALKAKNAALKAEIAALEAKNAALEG

4H2447-AA = target: T27, 4H2447-AA; conditions: mean of both orientations
T27 chain: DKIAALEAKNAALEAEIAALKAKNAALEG

P6-AA-12HGe-R = target: T28, P6-AA-12HGe-R; conditions: mean of both orientations
T28 chain: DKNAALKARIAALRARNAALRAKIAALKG

zCON9_D = target: T29, zCON9_D; conditions: mean of both orientations
T29 chain: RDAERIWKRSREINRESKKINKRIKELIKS

P3-AA = target: T30, P3-AA; conditions: mean of both orientations
T30 chain: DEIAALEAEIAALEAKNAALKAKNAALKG

P6-AA-12HGe-A = target: T31, P6-AA-12HGe-A; conditions: mean of both orientations
T31 chain: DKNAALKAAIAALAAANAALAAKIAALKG

4H_APH3 = target: T32, 4H_APH3
T32 chain: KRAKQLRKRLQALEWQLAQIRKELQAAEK

4H3777-AA = target: T33, 4H3777-AA; conditions: mean of both orientations
T33 chain: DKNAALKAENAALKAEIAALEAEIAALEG

4H2604-AA = target: T34, 4H2604-AA; conditions: mean of both orientations
T34 chain: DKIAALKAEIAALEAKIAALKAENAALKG

P5-AA-1HAA-R = target: T35, P5-AA-1HAA-R; conditions: mean of both orientations
T35 chain: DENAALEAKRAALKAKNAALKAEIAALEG

P5-AA-1HAA-L = target: T36, P5-AA-1HAA-L; conditions: mean of both orientations
T36 chain: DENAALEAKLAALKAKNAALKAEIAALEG

P5-AA-1HGe-Q = target: T37, P5-AA-1HGe-Q; conditions: mean of both orientations
T37 chain: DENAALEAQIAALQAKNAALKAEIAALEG

P5-AA-1HGe-H = target: T38, P5-AA-1HGe-H; conditions: mean of both orientations
T38 chain: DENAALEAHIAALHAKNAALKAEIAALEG

P5-AA-12HGe-D = target: T39, P5-AA-12HGe-D; conditions: mean of both orientations
T39 chain: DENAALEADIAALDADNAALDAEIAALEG

O1-AA = target: T40, O1-AA; conditions: mean of both orientations
T40 chain: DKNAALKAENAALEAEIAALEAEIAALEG

O2-AA = target: T41, O2-AA; conditions: mean of both orientations
T41 chain: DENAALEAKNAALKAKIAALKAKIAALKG

4H2721-AA = target: T42, 4H2721-AA; conditions: mean of both orientations
T42 chain: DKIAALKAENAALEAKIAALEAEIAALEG

- interaction score (4H2504-AA): -1.49
- interaction score (4H3340-AA): -1.43
Binder: DENAALKAEIAALKAENAALKAEIAALKG [4H1626-AA]

- interaction score (APC5383-AA): -1.57
- interaction score (APC8910-AA): -1.69
- interaction score (4H2148-AA): -1.61
- interaction score (4H568-AA): -1.18
- interaction score (4H967-AA): -1.65
- interaction score (4H2447-AA): -1.57
Binder: DENAALKAKIAALEAKNAALEAKIAALEG [4H1845-AA]

- interaction score (4H3921-AA): -1.58
- interaction score (4H2575-AA; mean of both orientations): -1.19
Binder: DKIAALEAEIAALKAKNAALEAKIAALEG [4H2165-AA]

- interaction score (zCON9_D): -1.76
- interaction score (P5-AA-1HAA-R): 2
- interaction score (P5-AA-1HAA-L): 2.39
- interaction score (P5-AA-1HGe-Q): 2.38
- interaction score (P3-AA): -0.421
- interaction score (P5-AA-1HGe-H): 2.15
- interaction score (P5-AA-12HGe-D): -1.24
- interaction score (4H_APH3): -1.55
Binder: DKNAALKAEIAALEAENAALEAKIAALKG [4H3606-AA]

The remaining lines, values behind:

Binder: DENAALEAENAALEAEIAALEAEIAALEG [4H1153-AA]
- interaction score (4H3921-AA): -1.87
- interaction score (Core_NIIN-es_KEKK): 1.86
- interaction score (4H2575-AA): -0.264
- interaction score (4H1867-AA): 0.531

Binder: DENAALEAKIAALKAEIAALEAKIAALKG [4H1350-AA]
- interaction score (4H481-AA): 0.532
- interaction score (4H2873-AA): 1.38
- interaction score (4H233-AA): 0.257
- interaction score (4H2985-AA): 0.636
- interaction score (4H3605-AA): -0.433
- interaction score (4H327-AA): 2.32
- interaction score (4H2935-AA): -0.765
- interaction score (4H451-AA; mean of both orientations): 0.115

Binder: DENAALEAEIAALEAKIAALEAKNAALKG [4H1064-AA]
- interaction score (4H1913-AA): -0.972
- interaction score (4H2283-AA): -1.69
- interaction score (4H3121-AA): -1.6
- interaction score (4H3102-AA): -1.27
- interaction score (4H497-AA): -1.3
- interaction score (4H3666-AA): -1.27

Binder: DENAALEAKIAALKAKIAALKAEIAALEG [4H1385-AA]
- interaction score (P6-AA-12HAA-T): 1.61
- interaction score (4H451-AA): -1.11

Binder: DENAALEAKIAALKAKNAALKAEIAALEG [4H1401-AA]
- interaction score (P6-AA-12HGe-R): -1.02
- interaction score (zCON9_D): -1.37
- interaction score (P3-AA): -1.1
- interaction score (4H1867-AA): -1.22
- interaction score (P6-AA-12HGe-A): -0.0521
- interaction score (4H_APH3): -1.06

Binder: DEIAALEAENAALKAKNAALKAEIAALEG [4H249-AA]
- interaction score (4H3777-AA): -0.457
- interaction score (4H2604-AA): -1.73
- interaction score (4H2504-AA): -1.35
- interaction score (4H3340-AA): -1.45

Binder: DEIAALEAENAALEAKIAALKAENAALEG [4H171-AA]
- interaction score (O1-AA): -1.52
- interaction score (O2-AA): -1.24

Binder: DENAALEAENAALKAKIAALKAEIAALEG [4H1257-AA]
- interaction score (4H2721-AA): 1.02
- interaction score (4H1913-AA): -0.977
- interaction score (4H568-AA): -0.953
- interaction score (4H967-AA): -0.389
